Biological target: gp130 on HepG2 B6 cells (UniProt P40189)
Assay: cell-based or functional assay

Chain of gp130 on HepG2 B6 cells (P40189 23-918 limits assumed): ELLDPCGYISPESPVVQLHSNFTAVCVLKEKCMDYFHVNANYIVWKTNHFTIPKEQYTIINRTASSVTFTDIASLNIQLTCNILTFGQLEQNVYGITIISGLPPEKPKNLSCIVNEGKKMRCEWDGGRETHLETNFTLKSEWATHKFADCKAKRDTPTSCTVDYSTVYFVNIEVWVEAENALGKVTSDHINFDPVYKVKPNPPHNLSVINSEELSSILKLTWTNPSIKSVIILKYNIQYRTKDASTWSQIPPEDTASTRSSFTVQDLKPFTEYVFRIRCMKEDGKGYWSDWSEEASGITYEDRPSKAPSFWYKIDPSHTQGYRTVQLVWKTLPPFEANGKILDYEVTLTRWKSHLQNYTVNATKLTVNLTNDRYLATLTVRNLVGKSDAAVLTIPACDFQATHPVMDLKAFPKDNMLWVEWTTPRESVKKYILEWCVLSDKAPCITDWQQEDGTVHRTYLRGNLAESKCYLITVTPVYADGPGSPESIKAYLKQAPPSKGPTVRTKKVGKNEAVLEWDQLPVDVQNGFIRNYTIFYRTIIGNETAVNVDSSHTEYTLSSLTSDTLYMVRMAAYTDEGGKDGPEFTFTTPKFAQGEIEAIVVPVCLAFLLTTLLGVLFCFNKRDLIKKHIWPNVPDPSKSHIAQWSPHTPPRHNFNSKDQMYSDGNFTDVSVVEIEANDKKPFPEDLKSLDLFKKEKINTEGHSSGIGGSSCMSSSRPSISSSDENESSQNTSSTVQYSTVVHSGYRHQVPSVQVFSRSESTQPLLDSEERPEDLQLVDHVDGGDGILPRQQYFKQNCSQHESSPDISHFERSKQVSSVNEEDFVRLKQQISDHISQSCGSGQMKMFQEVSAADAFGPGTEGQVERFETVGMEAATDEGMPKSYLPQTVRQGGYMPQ

EC50, sPAP, HepG2 B6, Expt 1: 0.0657 µg/mL | EC50, sPAP, HepG2 B6, Expt 2: 0.0549 µg/mL | EC50 as % of wild type, sPAP, HepG2 B6, Expt 1: 269% | EC50 as % of wild type, sPAP, HepG2 B6, Expt 2: 171% | mean EC50 as % of wild type, sPAP, HepG2 B6: 220%
Substance: OSM-GST L13A (from UniProt P08515 1-218) (ligand)
